Literature values as cited in publication PMC3742580.
pKd: −log10 of the molar value.

Molecular target: Ras (Homo sapiens) (UniProt P01112)

Chain of RalGDS RA (Q12967 798-885): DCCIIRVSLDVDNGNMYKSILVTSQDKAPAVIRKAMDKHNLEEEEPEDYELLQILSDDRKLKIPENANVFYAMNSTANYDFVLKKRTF

pKd: 5.72
Substance: RalGDS RA (from UniProt Q12967)
